US20080241129A1, “ADIPOCYTE SECRETED PROTEIN CCDC80 IS A POTENT STIMULATOR OF BONE FORMATION” (Wyeth, priority 2007, published 2008)

Test system: neonatal mouse calvaria
Experiment: Neonatal calvaria organ culture assay (histomorphometry)
Type: cell-based
Procedure: Applicants used mouse neonatal calvaria organ culture assay to examine possible roles for Ccdc80 in bone formation/resorption. Neonatal mouse calvaria were prepared from 4-day-old pups as described previously (Traianedes K et al., Endocrinology 139:3178-84 (1998); Mundy G et al., Science 286:1946-49 (1999)). Briefly, calvaria were excised and cut in half along the sagittal suture. Each half calvaria was placed with the concave surface downward on a stainless steel grid (Small Parts, Inc., Miami, Fla.) in a 12-well tissue culture dish (Becton Dickinson, Oxnard, Calif.). Calvaria were pre-incubated overnight in serum-free BGJ medium with 0.1% BSA. Each well contained 1 ml of BGJ medium. After pre-incubation, calvaria were incubated for 7 days in BGJ medium containing 1% FBS without or with test samples. Calvaria in 12-well plates were incubated in a humidified atmosphere of 95% air and 5% CO2. Fresh test samples were added at the time of medium change on day 4.
After organ culture, calvaria were fixed in 10% neutral phosphate-buffered formaldehyde at room temperature for 72 hours, then decalcified for 5-6 hours in 10% EDTA in PBS. Calvaria in each group were embedded in parallel in the same paraffin block, and 4 μm sections were stained with hematoxylin-eosin. Consistent bone areas (200 μm away from frontal sutures) were selected for histomorphometric analysis. In brief, a 200 μm square grid was placed on each calvaria, and the number of osteoblasts and total bone area were determined with the Osteomeasure System (Osteometrics Inc., Atlanta, Ga.). All cells on the bone surface were counted as osteoblasts.
For this experiment, calvaria were prepared from 4-day old neonatal pups. Calvaria then were incubated for 7 days without (Control), or with serial dilutions of FLAG-purified Ccdc80 protein as shown in FIG. 4. Medium was changed on day 4. After organ culture, calvaria were fixed in 10% neutral phosphate buffered formaldehyde, embedded in paraffin block, sectioned at 4 μm, and stained with hematoxylin and Eosin for histomorphoemetric analysis.

[1] = 1% FLAG-purified Ccdc80 protein, 7 days

B1: FLAG-purified Ccdc80 protein: C-terminally FLAG-tagged human Ccdc80 purified from conditioned medium using anti-FLAG M2 affinity beads (protein)
chain: EPHPHATIRGSHGGRKVPLVSPDSSRPARFLRHTGRSRGIERSTLEEPNLQPLQRRRSVPVLRLARPTEPPARSDINGAAVRPEQRPAARGSPREMIRDEGSSARSRMLRFPSGSSSPNILASFAGKNRVWVISAPHASEGYYRLMMSLLKDDVYCELAERHIQQIVLFHQAGEEGGKVRRITSEGQILEQPLDPSLIPKLMSFLKLEKGKFGMVLLKKTLQVEERYPYPVRLEAMYEVIDQGPIRRIEKIRQKGFVQKCKASGVEGQVVAEGNDGGGGAGRPSLGSEKKKEDPRRAQVPPTRESRVKVLRKLAATAPALPQPPSTPRATTLPPAPATTVTRSTSRAVTVAARPMTTTAFPTTQRPWTPSPSHRPPTTTEVITARRPSVSENLYPPSRKDQHRERPQTTRRPSKATSLESFTNAPPTTISEPSTRAAGPGRFRDNRMDRREHGHRDPNVVPGPPKPAKEKPPKKKAQDKILSNEYEEKYDLSRPTASQLEDELQVGNVPLKKAKESKKHEKLEKPEKEKKKKMKNENADKLLKSEKQMKKSEKKSKQEKEKSKKKKGGKTEQDGYQKPTNKHFTQSPKKSVADLLGSFEGKRRLLLITAPKAENNMYVQQRDEYLESFCKMATRKISVITIFGPVNNSTMKIDHFQLDNEKPMRVVDDEDLVDQRLISELRKEYGMTYNDFFMVLTDVDLRVKQYYEVPITMKSVFDLIDTFQSRIKDMEKQKKEGIVCKEDKKQSLENFLSRFRWRRRLLVISAPNDEDWAYSQQLSALSGQACNFGLRHITILKLLGVGEEVGGVLELFPINGSSVVEREDVPAHLVKDIRNYFQVSPEYFSMLLVGKDGNVKSWYPSPMWSMVIVYDLIDSMQLRRQEMAIQQSLGMRCPEDEYAGYGYHSYHQGYQDGYQDDYRHHESYHHGYPY
modifications: left off: small tags and cut ends
What does the source list for B1?
bone resorption (histologically) [1]: enhanced; number of osteoblasts [1]: not significantly altered; osteoblast activation [1]: activated; increase in total bone area (1% FLAG-purified Ccdc80 protein, 7 days, P<0.0001): 62%; osteogenic activities (purified protein sample diluted as low as 0.01%, 7 days): clearly observed; number of osteoblasts (summary) (summary statement): unaltered; osteoblast activation (summary) (summary statement): activated osteoblasts
